Experiments:
[1] = biological target: Trx-HIS6-hTERT(1-200) T116A/T117A/S118A (human, UniProt O14746 1-200, T116A;T117A;S118A); test: EMSA
[2] = biological target: Trx-HIS6-hTERT(1-200) Y18A (human, UniProt O14746 1-200, Y18A); test: EMSA
[3] = biological target: Trx-HIS6-hTERT(1-200) Q169A (human, UniProt O14746 1-200, Q169A); test: EMSA
[4] = biological target: T1, Trx-HIS6-hTERT(1-200) (hTEN) (human, UniProt O14746 1-200); test: EMSA
[5] = biological target: T1, Trx-HIS6-hTERT(1-200) (hTEN); test: competition EMSA
[6] = biological target: T1, Trx-HIS6-hTERT(1-200) (hTEN); test: competition EMSA; remark: listed apart in the source
[7] = biological target: T1, Trx-HIS6-hTERT(1-200) (hTEN); test: competition EMSA; remark: listed apart in the source
[8] = biological target: T1, Trx-HIS6-hTERT(1-200) (hTEN); test: competition EMSA; remark: listed apart in the source
[9] = biological target: T1, Trx-HIS6-hTERT(1-200) (hTEN); test: competition EMSA; remark: listed apart in the source

T1 sequence (O14746 1-200): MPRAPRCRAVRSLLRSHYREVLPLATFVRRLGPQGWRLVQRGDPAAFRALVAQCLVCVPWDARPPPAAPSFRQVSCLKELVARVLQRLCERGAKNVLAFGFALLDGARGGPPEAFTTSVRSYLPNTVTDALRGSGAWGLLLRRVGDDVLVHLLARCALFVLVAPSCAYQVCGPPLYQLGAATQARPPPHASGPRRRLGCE
Trx-HIS6-hTERT(1-200) Y18A, sequence (O14746 1-200 Y18A): as the sequence (O14746 1-200) above, with Y18A counted along it
Trx-HIS6-hTERT(1-200) Q169A, sequence (O14746 1-200 Q169A): as the sequence (O14746 1-200) above, with Q169A counted along it
Trx-HIS6-hTERT(1-200) T116A/T117A/S118A, sequence (O14746 1-200 T116A/T117A/S118A): as the sequence (O14746 1-200) above, with T116A, T117A, S118A counted along it

B1: (TTAGGG)3 / I (ssDNA)
DNA: TTAGGGTTAGGGTTAGGG
What does the source list for B1?
binding result [1]: binds; binding result [2]: binds; binding result [3]: binds; binding result [4]: binds

B2: VI.TA6 (ssDNA)
DNA: GGTTATTATTAGG
Does B2 bind [5]?
Result: binds

B3: I.C11 (ssDNA)
DNA: TTAGGGTTAGCGTTAGGG
For B3, which binding signal [6] is on record?
The binding signal was 7 fold lower apparent affinity vs I (relative IC50).

B4: II (ssDNA)
DNA: GGGTTAGGGTTAGGGTTA
Does B4 bind [7]?
Result: binds

B5: III (ssDNA)
DNA: GGGTTAGGGTTAGGG
Does B5 bind [7]?
Result: binds

B6: IV (ssDNA)
DNA: GTTAGGGTTAGGG
Does B6 bind [8]?
Result: binds

B7: VI / (GGTTAG)2G (ssDNA)
DNA: GGTTAGGGTTAGG
Does B7 bind [9]?
Result: binds
